Drawing on PMC11793764, “A universal method for the purification of C2H2 zinc finger arrays”, this text covers Kd for one molecule.

By Kd is commonly meant the free concentration of one partner at which half of the binding sites on the other are occupied at equilibrium, for simple one-to-one binding.

For this data set, the target named is CCR5L (designed (synthetic)). Put plainly: MST; 100 uM ZnCl2; MST: 20 mM Tris-HCl pH 7.5, 200 mM NaCl, 0.01% Tween-20, 100 uM ZnCl2, 0.1 mM TCEP; TZAP arrays: 20 mM Tris-HCl pH 7.0, 50 mM NaCl, 0.1% Tween-20, 100 uM ZnCl2, 0.1 mM TCEP; temperature not stated. The following applies: protein: recombinant; tags: His-SUMO cleaved by Ulp1; Cy5-maleimide on terminal Cys; hairpin.
Sequence of CCR5L (designed (synthetic)) (chain, as listed by the source): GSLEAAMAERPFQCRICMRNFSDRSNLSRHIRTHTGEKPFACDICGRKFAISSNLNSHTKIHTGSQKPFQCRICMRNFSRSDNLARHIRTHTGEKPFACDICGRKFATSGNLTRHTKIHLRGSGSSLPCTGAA

B1: ccr5l-wt (structured_DNA)
DNA: GGCTTCCGCTGTCATCCTCATCAGGTTTTCCTGATGAGGATGACAGCGGAAGCC
For B1, the Kd came to 5.7 nM.
